Measurements reported in publication doi:10.1101/2021.07.28.454137.
Like-named read-outs stand apart in the source and are kept apart here.

Experiments:
[1] = biological target: human LonP1 T803V mutant, amino acids 125 to 959 (human) (UniProt P36776)
[2] = biological target: human mitochondrial Lon protease homolog (LonP1), wild-type, amino acids 125 to 959 (human) (UniProt P36776); experiment: cryo-EM structure
[3] = biological target: human mitochondrial Lon protease homolog (LonP1), wild-type, amino acids 125 to 959 (human) (UniProt P36776); experiment: cryo-EM structure; remark: listed apart in the source

human LonP1 T803V mutant, amino acids 125 to 959 (from UniProt P36776 125-959) (enzyme)
ATPase activity relative to wild-type LonP1 [1]: 50%

human mitochondrial Lon protease homolog (LonP1), wild-type, amino acids 125 to 959 (from UniProt P36776 125-959) (enzyme)
stoichiometry N [2]: 6
stoichiometry N [3]: 6
